Test results taken from patent US7601333B2, “Use of a tetrapeptide AcSDKP (SEQ ID No. 1) analog resistant to the angiotensin I converting enzyme for measuring glomerular filtration rate in a human or an animal and kit containing same” (Assistance Publique-Hopitaux de Paris, priority 2003, dated 2009).
No end group written: not given here.

T1: rat lung ACE (angiotensin I converting enzyme in ground rat lung material) (rat, UniProt P47820 36-1313, limits assumed)
T1 sequence (looked up): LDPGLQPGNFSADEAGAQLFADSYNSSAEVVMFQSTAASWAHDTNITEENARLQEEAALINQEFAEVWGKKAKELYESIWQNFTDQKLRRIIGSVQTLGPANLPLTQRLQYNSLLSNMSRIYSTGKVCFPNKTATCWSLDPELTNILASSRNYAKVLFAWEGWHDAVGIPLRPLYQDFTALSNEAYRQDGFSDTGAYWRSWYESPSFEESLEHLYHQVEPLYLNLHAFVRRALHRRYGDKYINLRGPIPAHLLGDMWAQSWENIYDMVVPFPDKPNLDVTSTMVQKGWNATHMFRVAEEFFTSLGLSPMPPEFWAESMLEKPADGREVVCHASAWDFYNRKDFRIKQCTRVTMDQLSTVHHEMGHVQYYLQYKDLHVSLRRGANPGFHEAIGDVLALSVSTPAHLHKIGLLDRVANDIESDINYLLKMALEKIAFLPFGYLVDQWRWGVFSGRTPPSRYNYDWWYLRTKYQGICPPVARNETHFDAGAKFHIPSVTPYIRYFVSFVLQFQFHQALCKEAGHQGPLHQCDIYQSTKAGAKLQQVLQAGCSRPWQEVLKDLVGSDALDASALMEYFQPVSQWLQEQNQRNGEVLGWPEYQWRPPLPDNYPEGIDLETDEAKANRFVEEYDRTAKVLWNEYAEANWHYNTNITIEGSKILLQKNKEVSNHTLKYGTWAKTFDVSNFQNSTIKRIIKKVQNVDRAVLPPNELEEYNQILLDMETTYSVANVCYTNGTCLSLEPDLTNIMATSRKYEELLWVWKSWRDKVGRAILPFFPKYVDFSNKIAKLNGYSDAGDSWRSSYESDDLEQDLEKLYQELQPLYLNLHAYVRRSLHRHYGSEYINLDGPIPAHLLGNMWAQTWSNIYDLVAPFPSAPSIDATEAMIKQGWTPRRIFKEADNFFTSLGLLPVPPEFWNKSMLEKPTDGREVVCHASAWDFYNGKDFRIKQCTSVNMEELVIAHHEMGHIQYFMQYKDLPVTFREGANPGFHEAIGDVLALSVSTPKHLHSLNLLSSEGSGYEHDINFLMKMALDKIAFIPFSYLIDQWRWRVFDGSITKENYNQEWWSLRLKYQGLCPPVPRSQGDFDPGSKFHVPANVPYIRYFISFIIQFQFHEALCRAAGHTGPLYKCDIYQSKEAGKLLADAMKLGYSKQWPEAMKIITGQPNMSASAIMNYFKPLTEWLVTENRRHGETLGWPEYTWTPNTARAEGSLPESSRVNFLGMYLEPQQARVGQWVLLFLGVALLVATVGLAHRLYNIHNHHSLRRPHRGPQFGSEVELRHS


What was measured:
[1] = target: T1, rat lung ACE (angiotensin I converting …); test: cell-based or functional assay
[2] = target: human converting enzyme (human ACE) (human, UniProt P12821 30-1306, limits assumed); test: cell-based or functional assay

in vitro degradation: % of peptide assayed relative to the control (enzyme immunoassay), T30 min, no captopril [1] [%]	in vitro degradation: % of peptide assayed relative to the control (enzyme immunoassay), T30 min, with captopril 10 uM [1] [%]	in vitro degradation: % of peptide assayed relative to the control (enzyme immunoassay), T60 min, no captopril [1] [%]	in vitro degradation: % of peptide assayed relative to the control (enzyme immunoassay), T60 min, with captopril 10 uM [1] [%]	in vitro degradation: % of peptide assayed relative to the control (enzyme immunoassay), T120 min, no captopril [1] [%]	in vitro degradation: % of peptide assayed relative to the control (enzyme immunoassay), T120 min, with captopril 10 uM [1] [%]	in vitro degradation: % of peptide assayed relative to the control (enzyme immunoassay), T240 min, no captopril [1] [%]	in vitro degradation: % of peptide assayed relative to the control (enzyme immunoassay), T240 min, with captopril 10 uM [1] [%]	in vitro degradation: % of peptide assayed relative to the control (enzyme immunoassay), T10 min, no captopril [2] [%]	in vitro degradation: % of peptide assayed relative to the control (enzyme immunoassay), T10 min, with captopril 10 uM [2] [%]	in vitro degradation: % of peptide assayed relative to the control (enzyme immunoassay), T30 min, no captopril [2] [%]	in vitro degradation: % of peptide assayed relative to the control (enzyme immunoassay), T30 min, with captopril 10 uM [2] [%]	in vitro degradation: % of peptide assayed relative to the control (enzyme immunoassay), T60 min, no captopril [2] [%]	in vitro degradation: % of peptide assayed relative to the control (enzyme immunoassay), T60 min, with captopril 10 uM [2] [%]	in vitro degradation: % of peptide assayed relative to the control (enzyme immunoassay), T120 min, no captopril [2] [%]	in vitro degradation: % of peptide assayed relative to the control (enzyme immunoassay), T120 min, with captopril 10 uM [2] [%]	in vitro degradation: % of peptide assayed relative to the control (enzyme immunoassay), T240 min, no captopril [2] [%]	in vitro degradation: % of peptide assayed relative to the control (enzyme immunoassay), T240 min, with captopril 10 uM [2] [%]	in vitro degradation: % of peptide assayed relative to the control (enzyme immunoassay), T1440 min, no captopril [2] [%]	in vitro degradation: % of peptide assayed relative to the control (enzyme immunoassay), T1440 min, with captopril 10 uM [2] [%]	Binder
100	125	65	65	95	109	126	136	79	90	100	162	116	78	116	95	107	104	86	117	Ac-SDKP-NH2 [N-acetyl-Ser-Asp-Lys-Pro-NH2 (AcSDKP-NH2)]
28	129	9	111	5	75	5	89	82	90	75	100	50	85	25	85	7	100			Ac-SDKP [N-acetyl-Ser-Asp-Lys-Pro (AcSDKP)]
